Tested on: control human primary myoblasts
Experiment: Expression microarray of primary myoblasts transduced with lentivirus carrying DUX4-fl, DUX4-s or GFP
Procedure: Primary human myoblasts were collected and cultured as previously described (Snider et al., 2010). Primary myoblasts were maintained at or below 70% confluency for proliferation. For differentiation, cells were allowed to reach 95-100% confluency in growth medium. Once confluency was reached, the cells were changed to differentiation medium (F10 media supplemented with 1% horse serum, 10 μg/mL insulin, and 10 μg/mL transferrin, penicillin/streptomycin) and maintained for 4 days. Human RD cells were grown in DMEM in 10% bovine calf serum (Hyclone) and penicillin/streptomycin. The primary myoblasts were transduced with lentivirus carrying DUX-fl, DUX4- or GFP (MOI=15).
Expression microarrays were performed on the transduced cells at 24 hours after transduction as follows. […] Samples were analyzed by Illumina Human Whole Genome microarrays. Probe intensities were corrected, normalized, and summarized by the Lumi package of Bioconductor (Du et al., 2008). Differentially expressed genes were identified by the LIMMA package of Bioconductor (Wettenhall and Smyth, 2004). Gene set enrichment analysis (GSEA) was performed using the Bioconductor GOstats package (Falcon and Gentleman, 2007).

B1: DUX4-s: short splice form of DUX4 (SEQ ID NO:112), keeps the double-homeobox domains, lacks the C-terminal activation domain (protein, listed as Homo sapiens)
chain: MALPTPSDSTLPAEARGRGRRRRLVWTPSQSEALRACFERNPYPGIATRERLAQAIGIPEPRVQIWFQNERSRQLRQHRRESRPWPGRRGPPEGRRKRTAVTGSQTALLLRAFEKDRFPGIAAREELARETGLPESRIQIWFQNRRARHPGQGGRAPAQV
Refseq NM_007283.5
  fc of MGLL (expression array): −0.003305
Refseq NM_007315.2, cultured human skeletal muscle
  STAT1 expression fc: 0.8235
Refseq NM_009587.2
  fc of LGALS9 (expression array): 1.706
Refseq NM_012083.2
  FRAT2 expression fc: −0.05118
Refseq NM_012121.4
  fc of CDC42EP4 (expression array): 0.06633
Refseq NM_012124.1
  CHORDC1 expression fc: 0.1261
Refseq NM_012130.2
  CLDN14 expression fc: −0.3006
Refseq NM_012143.2
  TFIP11 expression fc: 0.1124
Refseq NM_012238.3
  SIRT1 expression fc: 0.2071
Refseq NM_012285.1
  KCNH4 expression fc: −0.07365
Refseq NM_012342.2
  BAMBI expression fc: 0.1101
Refseq NM_012461.1
  fc of TINF2 (expression array): 0.3861
Refseq NM_013230.2
  CD24 expression fc: −0.3586
Refseq NM_013249.1
  ZNF214 expression fc: 0.166
Refseq NM_013254.2
  TBK1 fc: 0.3572
Refseq NM_013262.3
  MYLIP expression fc: −0.2969
Refseq NM_013293.3
  TRA2A expression fc: −0.1095
Refseq NM_013302.3
  fc of EEF2K (expression array): −0.5322
Refseq NM_013376.3
  SERTAD1 expression fc: 0.41
Refseq NM_013386.3
  fc of SLC25A24 (expression array): 1.103
Refseq NM_013943.1
  fc of CLIC4 (expression array): 1.228
Refseq NM_014038.1
  BZW2 expression fc: −0.4003
Refseq NM_014045.3
  LRP10 fc: 0.4158
Refseq NM_014138.3
  fc of FAM156A (expression array): −0.1365
Refseq NM_014140.2
  SMARCAL1 fc: 0.01669
Refseq NM_014167.2
  CCDC59 expression fc: 0.2509
Refseq NM_014290.1
  fc of TDRD7 (expression array): 1.072
Refseq NM_014314.3, cultured human skeletal muscle
  DDX58 expression fc: 0.02114
Refseq NM_014317.3
  PDSS1 expression fc: −0.07459
Refseq NM_014324.4
  AMACR expression fc: 0.08431
Refseq NM_014330.2
  PPP1R15A expression fc: 0.5668
Refseq NM_014399.3
  TSPAN13 expression fc: −0.1469
Refseq NM_014508.2
  APOBEC3C fc: 0.5827
Refseq NM_014556.2, cultured human skeletal muscle
  EVC expression fc: −0.3857
Refseq NM_014575.2, cultured human skeletal muscle
  SCHIP1 expression fc: 0.06263
Refseq NM_014585.3
  SLC40A1 expression fc: −0.4239
Refseq NM_014603.1
  CDR2L fc: −0.203
Refseq NM_014604.2
  TAX1BP3 fc: −0.341
Refseq NM_014633.3
  CTR9 expression fc: −0.0216
Refseq NM_014655.1
  SLC25A44 expression fc: −0.07654
Refseq NM_014751.4
  MTSS1 fc: −0.4145
Refseq NM_014831.1
  LBA1 fc: 0.4958
Refseq NM_014878.4
  KIAA0020 expression fc: 0.01783
Refseq NM_014945.2
  ABLIM3 fc: 0.01495
Refseq NM_014969.4
  WDR47 expression fc: 0.1401
Refseq NM_015193.3
  ARC expression fc: −0.188
Refseq NM_015213.2
  fc of DENND5A (expression array): 0.07991
Refseq NM_015322.3
  fc of FEM1B (expression array): 1.026
Refseq NM_015368.3
  fc of PANX1 (expression array): 1.233
Refseq NM_015423.2
  fc of AASDHPPT (expression array): −1.246
Refseq NM_015440.3
  MTHFD1L fc: 0.3955
Refseq NM_015463.1
  C2orf32 fc: 0.07813
Refseq NM_015480.1
  PVRL3 expression fc: 0.4473
Refseq NM_015514.1
  NGDN expression fc: 0.4088
Refseq NM_015713.3
  fc of RRM2B (expression array): 0.6161
Refseq NM_015832.3
  MBD2 expression fc: −0.07679
Refseq NM_015884.1
  fc of MBTPS2 (expression array): 1.035
Refseq NM_015908.4
  ARS2 expression fc: −0.2002
Refseq NM_015917.1
  GSTK1 fc: 0.0593
Refseq NM_015934.3
  NOP58 expression fc: 0.2243
Refseq NM_015986.2
  CRLF3 expression fc: −0.1449
Refseq NM_016030.5
  fc of TTC15 (expression array): −0.1193
Refseq NM_016048.1
  ISOC1 expression fc: −0.6187
Refseq NM_016060.2
  MED31 expression fc: 0.3123
Refseq NM_016113.3
  fc of TRPV2 (expression array): 0.3116
Refseq NM_016174.3
  CERCAM fc: −0.1838
Refseq NM_016216.2
  DBR1 expression fc: 0.2247
Refseq NM_016310.2
  POLR3K expression fc: 0.05873
Refseq NM_016323.2, cultured human skeletal muscle
  HERC5 expression fc: 1.329
Refseq NM_016343.3
  fc of CENPF (expression array): −1.028
Refseq NM_016403.3
  CWC15 expression fc: 0.09338
Refseq NM_016456.2
  fc of TMEM9 (expression array): −0.2052
Refseq NM_016577.3
  RAB6B expression fc: 0.007069
Refseq NM_016582.1, cultured human skeletal muscle
  SLC15A3 expression fc: 0.7755
Refseq NM_016594.1
  FKBP11 fc: 0.3006
Refseq NM_016608.1
  ARMCX1 fc: −0.06031
Refseq NM_016647.2
  C8orf55 fc: −0.387
Refseq NM_017410.2
  HOXC13 fc: 0.444
Refseq NM_017414.3, cultured human skeletal muscle
  USP18 expression fc: 0.996
Refseq NM_017554.1, cultured human skeletal muscle
  PARP14 expression fc: 0.5211
Refseq NM_017611.2
  fc of SLC43A3 (expression array): 0.4376
Refseq NM_017617.3
  NOTCH1 fc: −0.6695
Refseq NM_017641.2
  KIF21A expression fc: 0.01529
Refseq NM_017651.3
  fc of AHI1 (expression array): −1.054
Refseq NM_017654.2, cultured human skeletal muscle
  SAMD9 expression fc: 1.399
Refseq NM_017709.3
  FAM46C expression fc: −0.1289
Refseq NM_017750.2, cultured human skeletal muscle
  RETSAT expression fc: −0.1731
Refseq NM_017816.1
  LYAR expression fc: 0.000875
Refseq NM_017894.4
  ZSCAN2 expression fc: −0.1999
Refseq NM_017912.3, cultured human skeletal muscle
  HERC6 expression fc: 0.5237
Refseq NM_017933.3
  PID1 fc: 0.314
Refseq NM_017953.2
  ZNHIT6 expression fc: 0.3265
Refseq NM_017970.2
  C14orf102 expression fc: 0.1769
Refseq NM_017983.4
  fc of WIPI1 (expression array): 0.07989
Refseq NM_017999.4
  RNF31 fc: 0.05142
Refseq NM_018027.3
  FRMD4A fc: −0.5453
Refseq NM_018088.3
  FAM90A1 expression fc: 0.02937
Refseq NM_018107.4
  fc of RBM23 (expression array): −0.07729
Refseq NM_018129.2
  PNPO fc: −0.02588
Refseq NM_018144.2
  SEC61A2 expression fc: 0.209
Refseq NM_018161.4
  NADSYN1 fc: 0.1182
Refseq NM_018295.2, cultured human skeletal muscle
  TMEM140 expression fc: 1.003
Refseq NM_018321.3
  BRIX1 expression fc: 0.2991
Refseq NM_018370.2
  DRAM1 fc: −0.3649
Refseq NM_018385.1
  LSG1 expression fc: −0.06468
Refseq NM_018421.2
  TBC1D2 fc: 0.2926
Refseq NM_018427.3
  RRN3 expression fc: 0.1072
Refseq NM_018443.2
  ZNF302 fc: −0.01005
Refseq NM_018446.2
  fc of GLT8D1 (expression array): −0.2715
Refseq NM_018476.3
  BEX1 fc: −0.2346
Refseq NM_018656.2
  SLC35E3 fc: 0.4619
Refseq NM_018661.3
  DEFB103B expression fc: −0.03507
Refseq NM_018837.2
  fc of SULF2 (expression array): −0.04817
Refseq NM_018945.3
  PDE7B fc: −0.5695
Refseq NM_018946.2
  NANS expression fc: −0.006607
Refseq NM_019014.3
  POLR1B expression fc: −0.1313
Refseq NM_019084.2
  CCNJ expression fc: 0.07916
Refseq NM_019102.2
  fc of HOXA5 (expression array): −0.1759
Refseq NM_020143.2
  PNO1 expression fc: 0.2485
Refseq NM_020231.3
  KTELC1 fc: 0.1564
Refseq NM_020317.3
  C1orf63 expression fc: −0.139
Refseq NM_020338.2
  ZMIZ1 fc: −0.03787
Refseq NM_020358.2
  TRIM49 expression fc: −0.01703
Refseq NM_020424.2
  LYRM1 fc: 0.01491
Refseq NM_020428.2
  SLC44A2 fc: −0.3457
Refseq NM_020528.1
  PCBP3 fc: 0.2113
Refseq NM_020529.1, cultured human skeletal muscle
  NFKBIA expression fc: 0.2751
Refseq NM_020650.2
  fc of RCN3 (expression array): −0.2021
Refseq NM_020651.2
  PELI1 expression fc: 0.1483
Refseq NM_020728.1
  fc of FAM62B (expression array): −1.387
Refseq NM_020760.1
  HECW2 fc: 0.06016
Refseq NM_020807.1
  ZNF319 fc: −0.08179
Refseq NM_020841.4
  OSBPL8 expression fc: 1.055
Refseq NM_020903.2
  USP29 expression fc: −0.09046
Refseq NM_020914.3
  fc of RNF213 (expression array): 0.6308
Refseq NM_020940.3
  fc of FAM160B1 (expression array): 0.6282
Refseq NM_020962.1
  fc of IGDCC4 (expression array): −0.5216
Refseq NM_021026.2
  RFPL1 expression fc: 0.3402

From patent publication US20140242093A1, “METHODS AND COMPOSITIONS FOR MODULATING THE INNATE IMMUNE RESPONSE AND/OR MYOGENESIS IN A MAMMALIAN SUBJECT” (FRED HUTCHINSON CANCER RESEARCH CENTER, priority 2011, published 2014)
